B1: TPR t1 (parent)
chain: GACCAAUCUGCCCUCAGAGCUCGAGAACAUCUUCGGAUGCAGAGGAGGCAGGCUUCGGUGGCGCGAUAGCGCCAACGUCCUCAACCUCCAAUGCAUCCCACCACAUGAUGAUGCCUGAAGAGCCUUGGUUUUUUG

Variants of: B1
Assay: polymerase ribozyme fitness, log enrichment relative to wild type (log ratio); higher = more active; in vitro selection for triplet polymerase activity
How it was run: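 A heterodimeric triplet polymerase ribozyme had each of its subunits mutagenized by PCR into a library, which was transcribed. One round of in vitro selection, done in triplicate, annealed each library with a biotinylated primer, its partner subunit and triplets, then incubated it frozen at −7 °C before gel excision of extended constructs, streptavidin-bead capture and RT-PCR. Fitness is the logarithm of genotype enrichment relative to wild-type enrichment, based on Illumina sequencing of inputs and outputs and inverse-variance-weighted replicate averages. A base-2 logarithm is used, and genotypes were kept only with ≥10 input reads and ≥1 read per output.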

Variant	polymerase ribozyme fitness (log ratio)
G120A U125A U126A G128A	0.067
C4U U9G A103U C124G	-3.47
C15A G36U G61A	-3.38
C99U C101A A121G C124G	-3.31
A2G A91U U96G G120U	-2.53
C4G U55C C72U C94G	-3.35
G10U G51C U106C	-3.5
C20U G113U	-0.99
A6U A105C	-1.94
A18U G113U	-4.9
U78C C89U C115A	-0.146
A18C G69C U133A	-4.77
G44U A83C	-1.34
C12G C56U U78A A90C C114U	-2.46
C13U G42U G44C C88A	-1.42
G44C G58C A121G	1.21
G10U A43U C73G A108G	-6.59
U7A C64A A95C C101A C123U	-6.03
A46U C72U	-1.53
G61A A91C A95U G110U C115A U125C U130C	-3.6
A41G C53U	-0.653
U78A C102A U112A	-1.54
C53U C62U U125A G128A U130A	-3.39
U54G G113C U126C	-3.09

Variant	polymerase ribozyme fitness (log ratio)
C85U C86A C94G G117C	-6.16
G48A U126G	-2.42
U38G C89A	-2.14
A50G C62U C82A A121U	1.97
G45A C94U	-0.815
C4G A18U G25C C62A A111U	-6.22
A37U G69U A118C	-2.82
G10C U109A	-6.66
C20A U129C	-3.02
C86U	-0.178
C8U A18U U116C	-2.04
U78A U87A	-0.201
A83G A105G C115U	-2.83
G61C C101G	-3.98
C56A G63U	-4.97
G10U G63C	-0.933
A29U G45U G120A G128U	-3.92
C13U G19U G42U G60A G110U	-5.83
A16U G71U U106G A111U	-5.64
A6U G52U	-1.52
A2C G61C A121C	-1.16
C15G G44U	-3.71
A2U A5C C13U G48A C70A	-4.35
U92C A121C	1.53

Variant	polymerase ribozyme fitness (log ratio)
C70U U92C C97U C123U	-0.926
G69U A74U G135C	-0.511
C49A U54A C73U U112C	1.26
C12A A75G C114A	-3.82
C13U C56U U67G G71U U106G C114G	-7.12
U59A A95G U125G	-0.633
G71U C94G G113C U126G	-6.21
C13U U112A	1.43
C3A U14G G69U C70U U106C	-4.86
G69U A83U A95U U106A	0.29
C12G C56U A74G G77C	-1.66
G63U C115G	-2.29
G10A G42U G110A	-4
C3A U133A	-1.44
G52A G61A C79G	-0.673
A18G G42A G63U G113A U132A	-3.41
C3A U7A C123U	0.267
G19C G44C C70A G93C C124G	-5.3
A5C G69C	-1.74
C20A C49U	-3.79
C22U A83U	-4.1
A37C C53U	-0.73
A41C C73A C86G C104A	-4.53
G39A G71U A83U	-1.37

Variant	polymerase ribozyme fitness (log ratio)
U59A A105C U112C	-0.41
C62A U109G	-6.74
C56A C64A G93A C104A U109G A111C	-5.87
G44U G47U C49G	-5.36
C34U U81A	-5.06
C3G C72A C94G C124A	-1.46
A37U U54C G60U	1.01
C11U C89U C99U A121U U131A	-1.82
G42C C56A	-1.76
G61U C64U	-3.25
G47U G58C G63U	-1.75
U9A G10C U54A C86A G110U U125A	-3.13
A18U A41U C56U C72A U133A	-3.75
C12U G57A G113C	-2.33
C72U C73A A83U U109A	-5.82
A90U G113C	-2.53
G10A A43G	-1.53
A29U G60A U78C C102A U112C	-3.58
C12G C15U C62A	-1.99
C3U G58A	-0.199
A41G A43U C70U A91C	-3.27
C102A U125C	-4.05
A90G C102A	-1.25
A16U A26G C56U C88U C124G	-1.25

Variant	polymerase ribozyme fitness (log ratio)
C4U C49A G60C C80A C115A	-5.4
C8A A90U	-0.513
C20U C98U	-1.43
U7C C40U C98A A121C	-3.62
G69C C94U U96A	-2.83
U21C U78A A91U	-1.45
C8G C73U A119U	0.0435
G61C A66U A121G	-0.122
C49U C98U U125G	-2.62
G120A G127U	0.172
G10C C11G U21A	0.0374
A66G G71A A83C C88U U106A U130G	-3.75
A37U G61U C114A U130A	-1.52
A2C	-1.4
C49U G61C	-1.88
C8U U130C	0.805
U9G C13A	-0.971
U14C C34A U87A	-4.01
C70G A105G G113U U129G	-6.51
C56G G61U	-2.32
U112G G128U	-2.4
U38G C72G	-0.641
C13A G52U C53U	-3.61
C73U C123G C124G	2.14

Variant	polymerase ribozyme fitness (log ratio)
A6C U59G C86U G113U	-3.51
U14A C85U	-2.79
A50C C82A	-0.499
A5G A6U G61C A66U	-1.7
G47U G113U	-3.52
C8G C11A A50U U81C	-2.29
G10U G71U	-0.746
A50G C76U	-0.383
G61C C82A G110A G127A	-3.64
A90U G113A	-1.1
C49U A66G	-1.95
C8U C97U	-0.0319
G17A U129A	-4.6
C13G C72A	-0.649
G44U G45C	-2.69
G63C C86U G120A	-0.703
G44C U92G U106A U116A	-6.02
C8G C72A C89A C94G	-1.88
C22G U96G C104G	-5.47
C13G A37G G117C	-4.68
C56U C85A C88A	-2.83
A29U G44A G110A U125A	-3.17
C15U C56A	-1.78
U7C C11U	0.539

Variant	polymerase ribozyme fitness (log ratio)
G71C A121C C123U C124U	-2.8
A5U C53A C104U G113C	-1.6
A2U G10U C15G U106A	-2.38
G52C C56G G71U C124U	-3.19
G39A G42U C49A G52A	-4.68
A75G U96A U106G	-3.41
C53G C97A	-5.66
C31U G47U C73A U112C G120C	-5.43
C12G C115U	-1.38
G69C U92A U133G	-4.36
A6U C12G G45C	-1.57
U14A C124A	-0.31
G52A C56U C72U G113C U125A	-2.88
G93C G128C	-2.25
A41C G48U G61C U92A	-5.63
C28G G42A A43C G69U U96A C101U C124U	-4.78
C76G U106C G128C	-3.27
C22A C40U C73U U112A U129C	-4.96
U54C G110A	-1.29
C34A G47C C82U A91G G120U	-7.66
C64U G77A	-0.391
A29U C40U C49A U106A	-1.76
C85G C123U	-0.244

Source: the RNAGym collection of RNA variant scans (doi:10.1073/pnas.2313332121)
